Source: patent US20250163127A1 (published 2025)
Where a chain is given by its changes, count along the chain named.

Legend:
CD80 = target: T1, CD80 (human); test: flow cytometry, CHO-CD80 cells
T1 chain: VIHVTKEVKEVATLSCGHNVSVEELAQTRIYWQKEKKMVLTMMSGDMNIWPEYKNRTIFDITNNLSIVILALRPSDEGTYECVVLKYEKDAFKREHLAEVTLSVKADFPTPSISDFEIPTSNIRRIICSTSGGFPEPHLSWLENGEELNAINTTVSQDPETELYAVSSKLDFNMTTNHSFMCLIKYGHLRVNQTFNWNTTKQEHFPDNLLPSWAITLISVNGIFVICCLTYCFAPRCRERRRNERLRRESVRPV

human PD-1 = human PD-1 (human, UniProt Q15116); test: flow cytometry, Jurkat/IL-2/PD-1 cells
PD-1 = PD-1 (human, UniProt Q15116); test: cell-based or functional assay

B1: CTLA-4 3037-PD-L1 303-Fc (Fc fusion)
chain: KAMHVAQPAVVLASSRGIASFVCEYASPWKATEVRVTVLRQADSQVTEVCAATYMMGSELTFPDDSICTGTSSGNQVNLTIRGLRAMDTGLYICKVEQMYPPPYLLGIGNGTQIYVIDPEPCPDSDGSGGSGGGGSGGGGSFTVTVPKDLYVVEYGSNMTIECKFPVEKQLDLAALIVYWEMEGKDIIQFVHGEEDQKAQHSSYRQRARLLKDQLSLGNAALQITDVKLQDAGVYRCMISYGGGADYKRITVKVNAGGGGSGSGGGGSEPKSSDKTHTCPPCPAPEAEGAPSVFLFPPKPKDTLMISRTPEVTCVVVDVSHEDPEVKFNWYVDGVEVHNAKTKPREEQYNSTYRVVSVLTVLHQDWLNGKEYKCKVSNKALPAPIEKTISKAKGQPREPQVYTLPPSRDELTKNQVSLTCLVKGFYPSDIAVEWESNGQPENNYKTTPPVLDSDGSFFLYSKLTVDKSRWQQGNVFSCSVMHEALHNHYTQKSLSLSPG
EC50 (CD80): 2.3 nM
EC50 (human PD-1): 111 nM

B2: PD-L1 303-CTLA-4 3037-Fc (Fc fusion)
chain: FTVTVPKDLYVVEYGSNMTIECKFPVEKQLDLAALIVYWEMEGKDIIQFVHGEEDQKAQHSSYRQRARLLKDQLSLGNAALQITDVKLQDAGVYRCMISYGGGADYKRITVKVNAGSGGSGGGGSGGGGSKAMHVAQPAVVLASSRGIASFVCEYASPWKATEVRVTVLRQADSQVTEVCAATYMMGSELTFPDDSICTGTSSGNQVNLTIRGLRAMDTGLYICKVEQMYPPPYLLGIGNGTQIYVIDPEPCPDSDGGGGSGSGGGGSEPKSSDKTHTCPPCPAPEAEGAPSVFLFPPKPKDTLMISRTPEVTCVVVDVSHEDPEVKFNWYVDGVEVHNAKTKPREEQYNSTYRVVSVLTVLHQDWLNGKEYKCKVSNKALPAPIEKTISKAKGQPREPQVYTLPPSRDELTKNQVSLTCLVKGFYPSDIAVEWESNGQPENNYKTTPPVLDSDGSFFLYSKLTVDKSRWQQGNVFSCSVMHEALHNHYTQKSLSLSPG
EC50 (CD80): 1.4 nM
EC50 (human PD-1): 1 nM

B3: CTLA-4 3037-Fc-PD-L1 303 (SEQ ID NO 3670) (Fc fusion)
chain: KAMHVAQPAVVLASSRGIASFVCEYASPWKATEVRVTVLRQADSQVTEVCAATYMMGSELTFPDDSICTGTSSGNQVNLTIRGLRAMDTGLYICKVEQMYPPPYLLGIGNGTQIYVIDPEPCPDSDGSGGGGSEPKSSDKTHTCPPCPAPEAEGAPSVFLFPPKPKDTLMISRTPEVTCVVVDVSHEDPEVKFNWYVDGVEVHNAKTKPREEQYNSTYRVVSVLTVLHQDWLNGKEYKCKVSNKALPAPIEKTISKAKGQPREPQVYTLPPSRDELTKNQVSLTCLVKGFYPSDIAVEWESNGQPENNYKTTPPVLDSDGSFFLYSKLTVDKSRWQQGNVFSCSVMHEALHNHYTQKSLSLSPGGGGGSGGGGSGGGGSFTVTVPKDLYVVEYGSNMTIECKFPVEKQLDLAALIVYWEMEGKDIIQFVHGEEDQKAQHSSYRQRARLLKDQLSLGNAALQITDVKLQDAGVYRCMISYGGGADYKRITVKVNA
EC50 (CD80): 1.9 nM
EC50 (human PD-1): 4.5 nM

B4: CTLA4 3037-Fc-PD-L1 303 (SEQ ID NO 3672) (Fc fusion)
chain: KAMHVAQPAVVLASSRGIASFVCEYASPWKATEVRVTVLRQADSQVTEVCAATYMMGSELTFPDDSICTGTSSGNQVNLTIRGLRAMDTGLYICKVEQMYPPPYLLGIGNGTQIYVIDPEPCPDSDGSGGGGSEPKSSDKTHTCPPCPAPEAEGAPSVFLFPPKPKDTLMISRTPEVTCVVVDVSHEDPEVKFNWYVDGVEVHNAKTKPREEQYNSTYRVVSVLTVLHQDWLNGKEYKCKVSNKALPAPIEKTISKAKGQPREPQVYTLPPSRDELTKNQVSLTCLVKGFYPSDIAVEWESNGQPENNYKTTPPVLDSDGSFFLYSKLTVDKSRWQQGNVFSCSVMHEALHNHYTQKSLSLSPGGGGGSGGGGSGGGGSAFTVTVPKDLYVVEYGSNMTIECKFPVEKQLDLAALIVYWEMEGKDIIQFVHGEEDQKAQHSSYRQRARLLKDQLSLGNAALQITDVKLQDAGVYRCMISYGGGADYKRITVKVNA
EC50 (CD80): 0.921 nM
EC50 (human PD-1): 6.8 nM

B5: CTLA-4 3060-PD-L1 303-Fc (Fc fusion)
chain: B1 chain with L12F, R16H, M56T, S58N, P63L, R82Q
EC50 (CD80): 2.3 nM
EC50 (human PD-1): 0.6 nM

B6: PD-L1 303-CTLA4 3060-Fc (Fc fusion)
chain: B2 chain with L142F, R146H, M186T, S188N, P193L, R212Q
EC50 (CD80): 3.4 nM
EC50 (human PD-1): 0.5 nM

B7: CTLA4 3037-Fc (Fc fusion)
chain: KAMHVAQPAVVLASSRGIASFVCEYASPWKATEVRVTVLRQADSQVTEVCAATYMMGSELTFPDDSICTGTSSGNQVNLTIRGLRAMDTGLYICKVEQMYPPPYLLGIGNGTQIYVIDPEPCPDSDGSGGGGSEPKSSDKTHTCPPCPAPEAEGAPSVFLFPPKPKDTLMISRTPEVTCVVVDVSHEDPEVKFNWYVDGVEVHNAKTKPREEQYNSTYRVVSVLTVLHQDWLNGKEYKCKVSNKALPAPIEKTISKAKGQPREPQVYTLPPSRDELTKNQVSLTCLVKGFYPSDIAVEWESNGQPENNYKTTPPVLDSDGSFFLYSKLTVDKSRWQQGNVFSCSVMHEALHNHYTQKSLSLSPG
EC50 (CD80): 1.7 nM

B8: PD-L1 303-COMP (other)
chain: FTVTVPKDLYVVEYGSNMTIECKFPVEKQLDLAALIVYWEMEGKDIIQFVHGEEDQKAQHSSYRQRARLLKDQLSLGNAALQITDVKLQDAGVYRCMISYGGGADYKRITVKVNAGGGGSGGGGSGGGGSDLGPQMLRELQETNAALQDVRELLRQQVREITFLKNTVMECDACGDYKDDDDKHHHHHH
% CD25 Hi FoxP3 + (PD-1): 23.5 % at 100 nM

B9: PD-L1 303-Fc + Fc (Fc fusion)
chain 1: HMSSVSAQAAAEPKSSDKTHTCPPCPAPEAEGAPSVFLFPPKPKDTLMISRTPEVTCVVVDVSHEDPEVKFNWYVDGVEVHNAKTKPREEQYNSTYRVVSVLTVLHQDWLNGKEYKCKVSNKALPAPIEKTISKAKGQPREPQVYTLPPCREEMTKNQVSLWCLVKGFYPSDIAVEWESNGQPENNYKTTPPVLDSDGSFFLYSKLTVDKSRWQQGNVFSCSVMHEALHNHYTQKSLSLSPGK
chain 2: FTVTVPKDLYVVEYGSNMTIECKFPVEKQLDLAALIVYWEMEGKDIIQFVHGEEDQKAQHSSYRQRARLLKDQLSLGNAALQITDVKLQDAGVYRCMISYGGGADYKRITVKVNAGSGGSGGGGSGGGGSEPKSSDKTHTCPPCPAPEAEGAPSVFLFPPKPKDTLMISRTPEVTCVVVDVSHEDPEVKFNWYVDGVEVHNAKTKPREEQYNSTYRVVSVLTVLHQDWLNGKEYKCKVSNKALPAPIEKTISKAKGQPREPQVCTLPPSREEMTKNQVSLSCAVKGFYPSDIAVEWESNGQPENNYKTTPPVLDSDGSFFLVSKLTVDKSRWQQGNVFSCSVMHEALHNHYTQKSLSLSPGHHHHHH
% CD25 Hi FoxP3 + (PD-1): 25.9 % at 100 nM

B10: PD-L2 1417-Fc + Fc (Fc fusion)
chain 1: B9 chain 1
chain 2: LFTVTVPKELYIIEQGSNVTLECNFDTGSHVNLGAITASLQKVENDASPHRERATLLEEQLPLGRALFHIPQVQVRDEGQYRCIIIYGDAWDYKYLTLKVKAGSGGSGGGGSGGGGSEPKSSDKTHTCPPCPAPEAEGAPSVFLFPPKPKDTLMISRTPEVTCVVVDVSHEDPEVKFNWYVDGVEVHNAKTKPREEQYNSTYRVVSVLTVLHQDWLNGKEYKCKVSNKALPAPIEKTISKAKGQPREPQVCTLPPSREEMTKNQVSLSCAVKGFYPSDIAVEWESNGQPENNYKTTPPVLDSDGSFFLVSKLTVDKSRWQQGNVFSCSVMHEALHNHYTQKSLSLSPGHHHHHH
% CD25 Hi FoxP3 + (PD-1): 26.8 % at 100 nM

B11: PD-L1 303-Fc (SEQ ID NO 3531) (Fc fusion)
chain: FTVTVPKDLYVVEYGSNMTIECKFPVEKQLDLAALIVYWEMEGKDIIQFVHGEEDQKAQHSSYRQRARLLKDQLSLGNAALQITDVKLQDAGVYRCMISYGGGADYKRITVKVNAGGGGSGGGGSEPKSSDKTHTCPPCPAPEAEGAPSVFLFPPKPKDTLMISRTPEVTCVVVDVSHEDPEVKFNWYVDGVEVHNAKTKPREEQYNSTYRVVSVLTVLHQDWLNGKEYKCKVSNKALPAPIEKTISKAKGQPREPQVYTLPPCREEMTKNQVSLWCLVKGFYPSDIAVEWESNGQPENNYKTTPPVLDSDGSFFLYSKLTVDKSRWQQGNVFSCSVMHEALHNHYTQKSLSLSPG
% CD25 Hi FoxP3 + (PD-1): 24.8 % at 100 nM
